The supplement of paper PMC5998384

Legend:
HeLa Kyoto [1] = assay: thermal stability score vs G1/S (z-score of summed log2 fold changes over temperatures); higher = more thermally stable than in G1/S
HeLa Kyoto [2] = assay: solubility in G1/S (NP-40 vs SDS abundance) (log2 ratio); higher = more soluble; details: cell cycle stage: G1/S
HeLa Kyoto [3] = assay: melting temperature (median over replicates), in situ; higher = more thermally stable
HeLa Kyoto [4] = assay: solubility change mitosis vs G1/S (difference of NP-40 vs SDS log2 ratios) (log2 ratio difference); higher = more soluble in mitosis
[5] = cell cycle stage: early G1 (4.5 h after nocodazole release)
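For melting temperature (median over replicates), in situ in this document: HeLa Kyoto cells synchronized by double thymidine or nocodazole block, proteins quantified by TMT10plex mass spectrometry, three independent biological replicates.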
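For solubility change mitosis vs G1/S (difference of NP-40 vs SDS log2 ratios) in this document: synchronized HeLa Kyoto cells (double thymidine block for G1/S, nocodazole release for mitosis), protein amounts in NP-40 versus SDS lysates quantified by mass spectrometry, three biological replicates.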
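For solubility in G1/S (NP-40 vs SDS abundance) in this document: HeLa Kyoto cells arrested at G1/S by double thymidine block, proteins quantified by TMT10plex mass spectrometry in mild NP-40 versus SDS extracts, three biological replicates.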
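For thermal stability score vs G1/S (z-score of summed log2 fold changes over temperatures) in this document: synchronized HeLa Kyoto cells, proteins quantified by TMT10plex mass spectrometry, three biological replicates, mitosis taken 0.5 h after nocodazole release, G1/S directly after double thymidine block.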

Sequence	thermal stability score (HeLa Kyoto [1]; [5])	thermal stability score (HeLa Kyoto [1]; cell cycle stage: mitosis)	solubility in G1/S (log2) (HeLa Kyoto [2])	melting temperature (HeLa Kyoto [3]; cell cycle stage: G1/S)	melting temperature (HeLa Kyoto [3]; cell cycle stage: mitosis)	solubility change mitosis (log2) (HeLa Kyoto [4])
MSMLKPSGLKAPTKILKPGSTALKTPTAVVAPVEKTISSEKASSTPSSETQEEFVDDFRVGERVWVNGNKPGFIQFLGETQFAPGQWAGIVLDEPIGKNDGSVAGVRYFQCEPLKGIFTRPSKLTRKVQAEDEANGLQTTPASRATSPLCTSTASMVSSSPSTPSNIPQKPSQPAAKEPSATPPISNLTKTASESISNLSEAGSIKKGERELKIGDRVLVGGTKAGVVRFLGETDFAKGEWCGVELDEPLGKNDGAVAGTRYFQCQPKYGLFAPVHKVTKIGFPSTTPAKAKANAVRRVMATTSASLKRSPSASSLSSMSSVASSVSSRPSRTGLLTETSSRYARKISGTTALQEALKEKQQHIEQLLAERDLERAEVAKATSHVGEIEQELALARDGHDQHVLELEAKMDQLRTMVEAADREKVELLNQLEEEKRKVEDLQFRVEEESITKGDLEQKSQISEDPENTQTKLEHARIKELEQSLLFEKTKADKLQRELEDTRVATVSEKSRIMELEKDLALRVQEVAELRRRLESNKPAGDVDMSLSLLQEISSLQEKLEVTRTDHQREITSLKEHFGAREETHQKEIKALYTATEKLSKENESLKSKLEHANKENSDVIALWKSKLETAIASHQQAMEELKVSFSKGLGTETAEFAELKTQIEKMRLDYQHEIENLQNQQDSERAAHAKEMEALRAKLMKVIKEKENSLEAIRSKLDKAEDQHLVEMEDTLNKLQEAEIKVKELEVLQAKCNEQTKVIDNFTSQLKATEEKLLDLDALRKASSEGKSEMKKLRQQLEAAEKQIKHLEIEKNAESSKASSITRELQGRELKLTNLQENLSEVSQVKETLEKELQILKEKFAEASEEAVSVQRSMQETVNKLHQKEEQFNMLSSDLEKLRENLADMEAKFREKDEREEQLIKAKEKLENDIAEIMKMSGDNSSQLTKMNDELRLKERDVEELQLKLTKANENASFLQKSIEDMTVKAEQSQQEAAKKHEEEKKELERKLSDLEKKMETSHNQCQELKARYERATSETKTKHEEILQNLQKTLLDTEDKLKGAREENSGLLQELEELRKQADKAKAAQTAEDAMQIMEQMTKEKTETLASLEDTKQTNAKLQNELDTLKENNLKNVEELNKSKELLTVENQKMEEFRKEIETLKQAAAQKSQQLSALQEENVKLAEELGRSRDEVTSHQKLEEERSVLNNQLLEMKKRESKFIKDADEEKASLQKSISITSALLTEKDAELEKLRNEVTVLRGENASAKSLHSVVQTLESDKVKLELKVKNLELQLKENKRQLSSSSGNTDTQADEDERAQESQIDFLNSVIVDLQRKNQDLKMKVEMMSEAALNGNGDDLNNYDSDDQEKQSKKKPRLFCDICDCFDLHDTEDCPTQAQMSEDPPHSTHHGSRGEERPYCEICEMFGHWATNCNDDETF [CLIP1]	-1.53	-1.75	0.37	54.7 °C	54.2 °C	-0.0152
MSNAKERKHAKKMRNQPTNVTLSSGFVADRGVKHHSGGEKPFQAQKQEPHPGTSRQRQTRVNPHSLPDPEVNEQSSSKGMFRKKGGWKAGPEGTSQEIPKYITASTFAQARAAEISAMLKAVTQKSSNSLVFQTLPRHMRRRAMSHNVKRLPRRLQEIAQKEAEKAVHQKKEHSKNKCHKARRCHMNRTLEFNRRQKKNIWLETHIWHAKRFHMVKKWGYCLGERPTVKSHRACYRAMTNRCLLQDLSYYCCLELKGKEEEILKALSGMCNIDTGLTFAAVHCLSGKRQGSLVLYRVNKYPREMLGPVTFIWKSQRTPGDPSESRQLWIWLHPTLKQDILEEIKAACQCVEPIKSAVCIADPLPTPSQEKSQTELPDEKIGKKRKRKDDGENAKPIKKIIGDGTRDPCLPYSWISPTTGIIISDLTMEMNRFRLIGPLSHSILTEAIKAASVHTVGEDTEETPHRWWIETCKKPDSVSLHCRQEAIFELLGGITSPAEIPAGTILGLTVGDPRINLPQKKSKALPNPEKCQDNEKVRQLLLEGVPVECTHSFIWNQDICKSVTENKISDQDLNRMRSELLVPGSQLILGPHESKIPILLIQQPGKVTGEDRLGWGSGWDVLLPKGWGMAFWIPFIYRGVRVGGLKESAVHSQYKRSPNVPGDFPDCPAGMLFAEEQAKNLLEKYKRRPPAKRPNYVKLGTLAPFCCPWEQLTQDWESRVQAYEEPSVASSPNGKESDLRRSEVPCAPMPKKTHQPSDEVGTSIEHPREAEEVMDAGCQESAGPERITDQEASENHVAATGSHLCVLRSRKLLKQLSAWCGPSSEDSRGGRRAPGRGQQGLTREACLSILGHFPRALVWVSLSLLSKGSPEPHTMICVPAKEDFLQLHEDWHYCGPQESKHSDPFRSKILKQKEKKKREKRQKPGRASSDGPAGEEPVAGQEALTLGLWSGPLPRVTLHCSRTLLGFVTQGDFSMAVGCGEALGFVSLTGLLDMLSSQPAAQRGLVLLRPPASLQYRFARIAIEV [POP1]	1.22	-1.05	-0.778	52.2 °C	51.8 °C	0.246
MSNIYIQEPPTNGKVLLKTTAGDIDIELWSKEAPKACRNFIQLCLEAYYDNTIFHRVVPGFIVQGGDPTGTGSGGESIYGAPFKDEFHSRLRFNRRGLVAMANAGSHDNGSQFFFTLGRADELNNKHTIFGKVTGDTVYNMLRLSEVDIDDDERPHNPHKIKSCEVLFNPFDDIIPREIKRLKKEKPEEEVKKLKPKGTKNFSLLSFGEEAEEEEEEVNRVSQSMKGKSKSSHDLLKDDPHLSSVPVVESEKGDAPDLVDDGEDESAEHDEYIDGDEKNLMRERIAKKLKKDTSANVKSAGEGEVEKKSVSRSEELRKEARQLKRELLAAKQKKVENAAKQAEKRSEEEEAPPDGAVAEYRREKQKYEALRKQQSKKGTSREDQTLALLNQFKSKLTQAIAETPENDIPETEVEDDEGWMSHVLQFEDKSRKVKDASMQDSDTFEIYDPRNPVNKRRREESKKLMREKKERR [CWC27]	0.415	1.04	0.0954	47.3 °C	49.8 °C	0.0672
MSNSRPRSRRDAGGGAGAAGRDELVSRSLQSAEHCLGVQDFGTAYAHYLLVLSLAPELKHDVKETFQYTLFRWAEELDALSRIQDLLGCYEQALELFPDDEVICNSMGEHLFRMGFRDEAAGYFHKAVKLNPDFSDAKENFYRVANWLVERWHFIMLNDTKRNTIYNAAIQKAVCLGSKSVLDIGAGTGILSMFAKKAGAHSVYACELSKTMYELACDVVAANKMEAGIKLLHTKSLDIEIPKHIPERVSLVVTETVDAGLFGEGIVESLIHAWEHLLLQPKTKGESANCEKYGKVIPASAVIFGMAVECAEIRRHHRVGIKDIAGIHLPTNVKFQSPAYSSVDTEETIEPYTTEKMSRVPGGYLALTECFEIMTVDFNNLQELKSLATKKPDKIGIPVIKEGILDAIMVWFVLQLDDEHSLSTSPSEETCWEQAVYPVQDLADYWIKPGDHVMMEVSCQDCYLRIQSISVLGLECEMDVAKSFTQNKDLLSLGNEAELCSALANLQTSKPDAVEQTCILESTEIALLNNIPYHEGFKMAMSKVLSSLTPEKLYQTMDTHCQNEMSSGTGQSNTVQNILEPFYVLDVSEGFSVLPVIAGTLGQVKPYSSVEKDQHRIALDLISEANHFPKETLEFWLRHVEDESAMLQRPKSDKLWSIIILDVIEPSGLIQQEIMEKAAISRCLLQSGGKIFPQYVLMFGLLVESQTLLEENAVQGTERTLGLNIAPFINQFQVPIRVFLDLSSLPCIPLSKPVELLRLDLMTPYLNTSNREVKVYVCKSGRLTAIPFWYHMYLDEEIRLDTSSEASHWKQAAVVLDNPIQVEMGEELVLSIQHHKSNVSITVKQ [PRMT9]	0.367	0.336	-0.21	50.8 °C	51.1 °C	-0.0806
MSPEEWTYLVVLLISIPIGFLFKKAGPGLKRWGAAAVGLGLTLFTCGPHTLHSLVTILGTWALIQAQPCSCHALALAWTFSYLLFFRALSLLGLPTPTPFTNAVQLLLTLKLVSLASEVQDLHLAQRKEMASGFSKGPTLGLLPDVPSLMETLSYSYCYVGIMTGPFFRYRTYLDWLEQPFPGAVPSLRPLLRRAWPAPLFGLLFLLSSHLFPLEAVREDAFYARPLPARLFYMIPVFFAFRMRFYVAWIAAECGCIAAGFGAYPVAAKARAGGGPTLQCPPPSSPEKAASLEYDYETIRNIDCYSTDFCVRVRDGMRYWNMTVQWWLAQYIYKSAPARSYVLRSAWTMLLSAYWHGLHPGYYLSFLTIPLCLAAEGRLESALRGRLSPGGQKAWDWVHWFLKMRAYDYMCMGFVLLSLADTLRYWASIYFCIHFLALAALGLGLALGGGSPSRRKAASQPTSLAPEKLREE [MBOAT7]	-1.37	-1.09	-0.091	56.9 °C	57 °C	0.0131
MSPRRTLPRPLSLCLSLCLCLCLAAALGSAQSGSCRDKKNCKVVFSQQELRKRLTPLQYHVTQEKGTESAFEGEYTHHKDPGIYKCVVCGTPLFKSETKFDSGSGWPSFHDVINSEAITFTDDFSYGMHRVETSCSQCGAHLGHIFDDGPRPTGKRYCINSAALSFTPADSSGTAEGGSGVASPAQADKAEL [MSRB3]	-0.168	-0.886	0.116	55 °C	53.6 °C	0.0421
MSQGDSNPAAIPHAAEDIQGDDRWMSQHNRFVLDCKDKEPDVLFVGDSMVQLMQQYEIWRELFSPLHALNFGIGGDTTRHVLWRLKNGELENIKPKVIVVWVGTNNHENTAEEVAGGIEAIVQLINTRQPQAKIIVLGLLPRGEKPNPLRQKNAKVNQLLKVSLPKLANVQLLDTDGGFVHSDGAISCHDMFDFLHLTGGGYAKICKPLHELIMQLLEETPEEKQTTIA [PAFAH1B2]	-0.13	-0.102	0.628	49.5 °C	51 °C	-0.079
MSQQGYVATPPYSQPQPGIGLSPPHYGHYGDPSHTASPTGMMKPAGPLGATATRGMLPPGPPPPGPHQFGQNGAHATGHPPQRFPGPPPVNNVASSHAPYQPSAQSSYPGPISTSSVTQLGSQLSAMQINSYGSGMAPPSQGPPGPLSATSLQTPPRPPQPSILQPGSQVLPPPPTTLNGPGASPLPLPMYRPDGLSGPPPPNAQYQPPPLPGQTLGAGYPPQQANSGPQMAGAQLSYPGGFPGGPAQMAGPPQPQKKLDPDSIPSPIQVIENDRASRGGQVYATNTRGQIPPLVTTDCMIQDQGNASPRFIRCTTYCFPCTSDMAKQAQIPLAAVIKPFATIPSNESPLYLVNHGESGPVRCNRCKAYMCPFMQFIEGGRRYQCGFCNCVNDVPPFYFQHLDHIGRRLDHYEKPELSLGSYEYVATLDYCRKSKPPNPPAFIFMIDVSYSNIKNGLVKLICEELKTMLEKIPKEEQEETSAIRVGFITYNKVLHFFNVKSNLAQPQMMVVTDVGEVFVPLLDGFLVNYQESQSVIHNLLDQIPDMFADSNENETVFAPVIQAGMEALKAADCPGKLFIFHSSLPTAEAPGKLKNRDDKKLVNTDKEKILFQPQTNVYDSLAKDCVAHGCSVTLFLFPSQYVDVASLGLVPQLTGGTLYKYNNFQMHLDRQQFLNDLRNDIEKKIGFDAIMRVRTSTGFRATDFFGGILMNNTTDVEMAAIDCDKAVTVEFKHDDKLSEDSGALIQCAVLYTTISGQRRLRIHNLGLNCSSQLADLYKSCETDALINFFAKSAFKAVLHQPLKVIREILVNQTAHMLACYRKNCASPSAASQLILPDSMKVLPVYMNCLLKNCVLLSRPEISTDERAYQRQLVMTMGVADSQLFFYPQLLPIHTLDVKSTMLPAAVRCSESRLSEEGIFLLANGLHMFLWLGVSSPPELIQGIFNVPSFAHINTDMTLLPEVGNPYSQQLRMIMGIIQQKRPYSMKLTIVKQREQPEMVFRQFLVEDKGLYGGSSYVDFLCCVHKEICQLLN [SEC24D]	0.419	0.688	0.11	50.8 °C	50.9 °C	-0.132
MSQSKGKKRNPGLKIPKEAFEQPQTSSTPPRDLDSKACISIGNQNFEVKADDLEPIMELGRGAYGVVEKMRHVPSGQIMAVKRIRATVNSQEQKRLLMDLDISMRTVDCPFTVTFYGALFREGDVWICMELMDTSLDKFYKQVIDKGQTIPEDILGKIAVSIVKALEHLHSKLSVIHRDVKPSNVLINALGQVKMCDFGISGYLVDSVAKTIDAGCKPYMAPERINPELNQKGYSVKSDIWSLGITMIELAILRFPYDSWGTPFQQLKQVVEEPSPQLPADKFSAEFVDFTSQCLKKNSKERPTYPELMQHPFFTLHESKGTDVASFVKLILGD [MAP2K6]	1.49	0.537	0.225	51.4 °C	52.5 °C	-0.158
